Consider 11 molecules from patent US12365732 (23ANDME, dated 2025).

One assay deals with T1, cy-CD96 Fc (cynomolgus monkey, biotinylated in Table 16).
T1 construct: also called biotinylated cy-CD96-Fc
In words: SPR 25C, CD96-Fc on Protein A, Fab analyte. As to the method: Briefly, hu-CD96 Fc and cy-CD96 Fc were diluted at 10 µg/mL in HBS-P buffer (0.01 M HEPES pH 7.4, 0.15 M NaCl, 0.005% Surfactant P20) and applied to the Protein A chip at 30 µL/min flow rate for 60 s in flow cell 2 (FC2). Then flow 3-fold serial dilutions of mAb1.v7 Fab variants in HBS-P buffer (0.01 M HEPES pH 7.4, 0.15 M NaCl, 0.005% surfactant P20) from (0.4 nM) to high (1000 nM) were injected (flow rate: 30 µL/min) at 25° C. to both flow cell 1 (FC1) and flow cell 2 (FC2). The sensorgram was recorded and subject to reference and buffer subtraction before evaluating by BIA- CORE® 8K Evaluation Software (version 1.1.1.7442). Association rates ($kon$) and dissociation rates ($koff$) were calculated using a simple one-to-one Langmuir binding model. The equilibrium dissociation constant (K_D) was calculated as the ratio of $koff/kon$, and the values determined for the mAb1.v7 and the 5 Fab variants are summarized in Table 10 (below).

Assay [1] has as its target T2, hu-CD96 isoform 2 on CHO cells (human, UniProt P40200 22-585).
T2 construct: also called CHO-CD96 (isoform 2); CD96-CHOs
T2 sequence: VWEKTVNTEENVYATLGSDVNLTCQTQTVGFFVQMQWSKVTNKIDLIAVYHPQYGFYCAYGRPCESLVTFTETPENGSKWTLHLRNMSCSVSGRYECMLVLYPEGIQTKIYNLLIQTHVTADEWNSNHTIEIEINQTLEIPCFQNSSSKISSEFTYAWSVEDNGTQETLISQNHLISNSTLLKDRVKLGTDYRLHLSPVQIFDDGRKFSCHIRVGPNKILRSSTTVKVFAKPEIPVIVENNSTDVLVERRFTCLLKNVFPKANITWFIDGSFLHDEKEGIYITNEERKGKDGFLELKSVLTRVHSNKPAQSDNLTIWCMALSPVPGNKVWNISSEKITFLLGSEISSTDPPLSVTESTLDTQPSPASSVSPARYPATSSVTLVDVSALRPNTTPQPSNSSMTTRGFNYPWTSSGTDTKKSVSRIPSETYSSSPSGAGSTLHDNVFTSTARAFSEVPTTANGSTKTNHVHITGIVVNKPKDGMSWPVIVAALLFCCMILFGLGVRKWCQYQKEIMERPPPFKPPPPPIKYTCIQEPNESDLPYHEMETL
In words: FACS, CD155-Fc-FLAG 10 nM, Ab 0.16 nM. As to the method:
CHO cells stably expressing isoform 2 of hu-CD96 (Origene, catalog #RC221005) were incubated with anti-CD96 antibodies for 20 minutes at 4° C. The cells were washed, and then incubated with 10 nM human CD155-Fc-FLAG for 30 minutes at 4° C. Cells were washed, and then human CD155-Fc-FLAG binding was detected by incubation with anti-FLAG-APC (Columbia Biosciences, catalog #D3-1718-1MG) for 20 minutes at 4° C. Cell binding was analyzed by flow cytometry with a CytoFLEX (Beckman Coulter). CD155 binding is represented as median fluorescence intensity (MedFI).
As shown in Table 20 (below), the anti-CD96 antibodies, mAb1.v7.NGS8, mAb1.v7.NGS9, mAb1.v7.NGS10, mAb1.v7.NGS11, and h10G1 inhibited soluble hu-CD155 binding to CD96-expressing CHO cells dose-dependently and potently. The antibody NK92.39 (Fuchs et al., 2004; Biolegend catalog #338405) inhibited receptor binding similarly.

Assay [2] concerns the target T3, hu-CD96 isoform 1 on HEK293T cells (human, UniProt P40200 22-585).
T3 construct: Origene RC213845, transient expression; also called HEK293T-CD96 (iso1)
T3 sequence: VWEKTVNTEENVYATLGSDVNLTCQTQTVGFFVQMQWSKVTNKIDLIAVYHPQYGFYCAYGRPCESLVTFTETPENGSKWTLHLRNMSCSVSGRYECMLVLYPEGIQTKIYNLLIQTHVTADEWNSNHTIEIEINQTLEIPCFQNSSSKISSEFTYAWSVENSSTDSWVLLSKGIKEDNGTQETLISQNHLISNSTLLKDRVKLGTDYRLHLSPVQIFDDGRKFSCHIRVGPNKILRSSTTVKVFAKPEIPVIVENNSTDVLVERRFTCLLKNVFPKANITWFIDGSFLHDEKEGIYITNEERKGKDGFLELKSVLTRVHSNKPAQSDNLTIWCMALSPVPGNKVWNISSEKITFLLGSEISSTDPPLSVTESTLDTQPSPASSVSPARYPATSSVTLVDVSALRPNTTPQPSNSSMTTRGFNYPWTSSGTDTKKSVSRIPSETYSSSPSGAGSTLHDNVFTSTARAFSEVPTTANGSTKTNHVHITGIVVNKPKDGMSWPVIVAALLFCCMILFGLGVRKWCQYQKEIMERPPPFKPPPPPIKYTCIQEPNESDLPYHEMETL
In words: FACS, Ab 0.08 nM. As to the method:
(§1) Isoform 1 of hu-CD96 (Origene, catalog #RC213845) was transiently expressed in HEK293T cells following standard lipofectamine or Fugene transfection protocol. […] Cells were washed, and binding was detected by incubation with anti-mouse IgG-FITC (Biolegend, catalog #406001) for 20 minutes at 4° C. Cell binding was analyzed by flow cytometry with a CytoFLEX (Beckman Coulter). Binding curves were calculated as a percentage of cells positive for bound antibody.

Assay [3] deals with T2, hu-CD96 isoform 2 on CHO cells. The experiment in a line: FACS, Ab 10 nM. On the procedure:
as §1
Isoform 2 of hu-CD96 (DNA construct: Origene, catalog #RC221005) was expressed on a single-cell-clone-derived CHO stable cell line. Binding of the anti-CD96 antibodies to the CHO cells were determined as described above with isoform 1 of hu-CD96.

T1 sequence (chain, as listed by the source): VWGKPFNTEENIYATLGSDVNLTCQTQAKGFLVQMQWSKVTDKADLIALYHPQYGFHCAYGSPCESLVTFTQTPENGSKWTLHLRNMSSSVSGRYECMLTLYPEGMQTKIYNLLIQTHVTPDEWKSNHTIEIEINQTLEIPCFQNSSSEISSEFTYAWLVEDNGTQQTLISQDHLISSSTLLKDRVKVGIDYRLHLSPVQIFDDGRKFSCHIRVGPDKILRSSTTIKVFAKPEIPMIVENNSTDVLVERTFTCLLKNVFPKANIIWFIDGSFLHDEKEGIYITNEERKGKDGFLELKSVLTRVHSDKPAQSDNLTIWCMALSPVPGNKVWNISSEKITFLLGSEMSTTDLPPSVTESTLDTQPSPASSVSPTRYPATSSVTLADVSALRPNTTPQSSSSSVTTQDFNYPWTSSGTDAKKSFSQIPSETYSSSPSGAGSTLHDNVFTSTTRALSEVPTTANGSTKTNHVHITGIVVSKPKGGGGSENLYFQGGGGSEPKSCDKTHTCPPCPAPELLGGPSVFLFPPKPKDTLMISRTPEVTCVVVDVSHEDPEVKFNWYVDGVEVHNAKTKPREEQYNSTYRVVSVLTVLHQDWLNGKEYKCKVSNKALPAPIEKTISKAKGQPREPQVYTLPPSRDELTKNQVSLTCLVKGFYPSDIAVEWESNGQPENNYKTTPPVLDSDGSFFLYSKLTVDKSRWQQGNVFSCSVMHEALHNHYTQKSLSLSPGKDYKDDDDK

B1: mAb1.v7.2 Fab (Fab, V domains shown)
VH: EVQLVQSGAEVKKPGASVKVSCKASGFTFTNNWRHWVRQAPGQGLEWIGMIHFNSGITNINEKFKNRVTMTTDTSTSTAYMELRSLRSEDTAVYYCRSDGVYEGYFDYWGQGTLVTVSS
VL: DIQLTQSPSSLSASVGDRVTITCKASQNVGTAIVWYQQKPGKAPKVLIYSASTRYTGVPSRFSGSGSGTDFTLTISSLQPEDFATYYCQQYSSSPLTFGQGTKVEIK
notes: also called M34R/P52aF/T97V
In the assay with cy-CD96 Fc, B1 yielded a Kd of 9.24 nM, a koff of 0.00024 s⁻¹ and a kon of 26000 M⁻¹ s⁻¹.

B2: mAb1.v7.NGS9 IgG (antibody, V domains shown)
VH: EVQLVQSGAEVKKPGASVKVSCKASGFTFTNNFMHWVRQAPGQGLEWIGMIHANSGITNINEKFKNRVTMTTDTSTSTAYMELRSLRSEDTAVYYCRSDGVYEGYFDYWGQGTLVTVSS
VL: DIQLTQSPSSLSASVGDRVTITCKASQNVGTAIVWYQQKPGKAPKVLIYSASTRYTGVPSRFSGSGSGTDFTLTISSLQPEDFATYYCQQYSSSPLTFGQGTKVEIKG
notes: human IgG1 N297G
For the molecule B2, the “CD155-Fc binding (MedFI)” value in assay [1] came to 54600 MedFI.

B3: mAb1.v7.70 Fab (Fab, V domains shown)
VH: EVQLVQSGAEVKKPGASVKVSCKASGFTFTNRWMHWVRQAPGQGLEWIGMIHANSGITNINEKFKNRVTMTTDTSTSTAYMELRSLRSEDTAVYYCRSDGVYEGYFDYWGQGTLVTVSS
VL: DIQLTQSPSSLSASVGDRVTITCKASQNVGTAIVWYQQKPGKAPKVLIYSASTRYTGVPSRFSGSGSGTDFTLTISSLQPEDFATYYCQQYSSSPLTFGQGTKVEIK
notes: also called N32R/P52aA/T97V
In the assay with cy-CD96 Fc, B3 gave a Kd of 5 nM, a koff of 0.000189 s⁻¹ and a kon of 37200 M⁻¹ s⁻¹.

B4: mAb1.v7.16 Fab (Fab, V domains shown)
VH: EVQLVQSGAEVKKPGASVKVSCKASGFTFTNNWRHWVRQAPGQGLEWIGMIHPNSGITNINEKFKNRVTMTTDTSTSTAYMELRSLRSEDTAVYYCRSDGVYEGYFDYWGQGTLVTVSS
VL: DIQLTQSPSSLSASVGDRVTITCKASQNVGTAIVWYQQKPGKAPKVLIYSASTRYTGVPSRFSGSGSGTDFTLTISSLQPEDFATYYCQQYSSSPLTFGQGTKVEIK
notes: also called M34R/T97V
In the assay with cy-CD96 Fc, B4 had a Kd of 94 nM, a koff of 0.000972 s⁻¹ and a kon of 10400 M⁻¹ s⁻¹.

B5: mAb1.v7.48 Fab (Fab, V domains shown)
VH: EVQLVQSGAEVKKPGASVKVSCKASGFTFTNRWMHWVRQAPGQGLEWIGMIHHNSGITNINEKFKNRVTMTTDTSTSTAYMELRSLRSEDTAVYYCRSDGVYEGYFDYWGQGTLVTVSS
VL: DIQLTQSPSSLSASVGDRVTITCKASQNVGTAIVWYQQKPGKAPKVLIYSASTRYTGVPSRFSGSGSGTDFTLTISSLQPEDFATYYCQQYSSSPLTFGQGTKVEIK
notes: also called N32R/P52aH/T97V
On to B5, for which, in the assay with cy-CD96 Fc, the Kd was found to be 8.9 nM, the off-rate constant (koff) was found to be 0.000328 s⁻¹ and the kon was determined as 36600 M⁻¹ s⁻¹.

B6: mAb1.v7.NGS10 IgG (antibody, V domains shown)
VH: EVQLVQSGAEVKKPGASVKVSCKASGFTFTNNFMHWVRQAPGQGLEWIGFIHANSGITNINEKFKNRVTMTTDTSTSTAYMELRSLRSEDTAVYYCRSDGIYEGYFDYWGQGTLVTVSS
VL: DIQLTQSPSSLSASVGDRVTITCKASQNVGTAIVWYQQKPGKAPKVLIYSASTRYTGVPSRFSGSGSGTDFTLTISSLQPEDFATYYCQQYSSSPLTFGQGTKVEIKG
notes: human IgG1 N297G
As for B6, in assay [1], the “CD155-Fc binding (MedFI)” value is 54100 MedFI.

B7: mAb1.v7.9 Fab (Fab, V domains shown)
VH: EVQLVQSGAEVKKPGASVKVSCKASGFTFTNNWRHWVRQAPGQGLEWIGMIHMNSGITNINEKFKNRVTMTTDTSTSTAYMELRSLRSEDTAVYYCRSDGVYEGYFDYWGQGTLVTVSS
VL: DIQLTQSPSSLSASVGDRVTITCKASQNVGTAIVWYQQKPGKAPKVLIYSASTRYTGVPSRFSGSGSGTDFTLTISSLQPEDFATYYCQQYSSSPLTFGQGTKVEIK
notes: also called M34R/P52aM/T97V
In the assay with cy-CD96 Fc, B7 showed a Kd of 22 nM, a koff of 0.000802 s⁻¹ and a kon of 36400 M⁻¹ s⁻¹.

B8: mAb1.v7.NGS11 IgG (antibody, V domains shown)
VH: EVQLVQSGAEVKKPGASVKVSCKASGFTFTNNFMHWVRQAPGQGLEWIGFIHANSGITNINEKFKNRVTMTTDTSTSTAYMELRSLRSEDTAVYYCRSDGVYEGYFDYWGQGTLVTVSS
VL: DIQLTQSPSSLSASVGDRVTITCKASQNVGTAIVWYQQKPGKAPKVLIYSASTRYTGVPSRFSGSGSGTDFTLTISSLQPEDFATYYCQQYSSSPLTFGQGTKVEIKG
notes: human IgG1 N297G
Consider B8, for which the “CD155-Fc binding (MedFI)” value in assay [1] was 51900 MedFI.

B9: 9H4, purified hybridoma antibody (antibody, V domains shown)
VH: EVQLLETGGGLVKSGGSLKLSCAASGFTFSDYYMYWVRQTPEKRLEWVAAISDDGTYTYYPDSVKGRFTISRDNANNYLYLQMSSLKSEDTAIYYCAKAGSYDYFDVWGAGTTVTVSS
VL: DIVLTQSPASLAVSLGQRAIISCKASQSVTFADTGLMHWYQQKPGQQPKLLIYRASNLEVGVPTRFSGSGSGTDFTLNIHPVEEEDVATYYCQQSREYPWTFGGGTKLEIK
notes: murine hybridoma IgG
For the molecule B9, the “% positive” value in assay [2] is 1.5%; in assay [3] it was 46.1%.

B10: 10G1 (clone 10G1.3G8), purified hybridoma antibody (antibody, V domains shown)
VH: QIQLVQSGPELKKPGETVKISCKASGYPFTTYGMSWVKQAPGKGLKWMGWINTDSGVPTYADDFKGRFAFSLETSANTAYLQINSLKNEDAATYFCARNIYYGWGNFDYWGQGTILTVSS
VL: DILMTQSPTTLSVTPGETVSLSCRASQDIYRNLHWYQQKSQGTPRLLIKHASDSISGIPSRFTGSGSGTDFTLSINSVKPEDEGIYYCLQGYSMPYTFGGGTKLEIK
notes: murine hybridoma IgG
With B10, the “% positive” value amounted to 16.5% in assay [2] and 39.2% in assay [3].

B11: 7E5, purified hybridoma antibody (antibody, V domains shown)
VH: QVQLKESGPGLVAPSQSLSIICTVSGFSLTNYGIHWIRQPPGKGLEWLGIIWAGGSTNYNSALMSRLTISKDNSKSQVFLKMNSLQTNDTAIYYCARVSMMGFAYWGQGTLVTVSA
VL: QAVVTQESALTTSPGETVTLTCRSSTGAVTTSNYANWVQEKPDHLFTGLIGGTNNRAPGVPARFSGSLIGDKAALTITGAQTEDEAIYFCSLWYGSHWVFGGGTKLTVL
notes: murine hybridoma IgG
In the case of B11, the “% positive” value was determined as 8.5% in assay [2] and 56.1% in assay [3].
